Target: T1, GPR110 F663S mutant (C-terminal HA tag) (human, UniProt Q5T601-1 20-910, F663S)
T1 sequence (looked up): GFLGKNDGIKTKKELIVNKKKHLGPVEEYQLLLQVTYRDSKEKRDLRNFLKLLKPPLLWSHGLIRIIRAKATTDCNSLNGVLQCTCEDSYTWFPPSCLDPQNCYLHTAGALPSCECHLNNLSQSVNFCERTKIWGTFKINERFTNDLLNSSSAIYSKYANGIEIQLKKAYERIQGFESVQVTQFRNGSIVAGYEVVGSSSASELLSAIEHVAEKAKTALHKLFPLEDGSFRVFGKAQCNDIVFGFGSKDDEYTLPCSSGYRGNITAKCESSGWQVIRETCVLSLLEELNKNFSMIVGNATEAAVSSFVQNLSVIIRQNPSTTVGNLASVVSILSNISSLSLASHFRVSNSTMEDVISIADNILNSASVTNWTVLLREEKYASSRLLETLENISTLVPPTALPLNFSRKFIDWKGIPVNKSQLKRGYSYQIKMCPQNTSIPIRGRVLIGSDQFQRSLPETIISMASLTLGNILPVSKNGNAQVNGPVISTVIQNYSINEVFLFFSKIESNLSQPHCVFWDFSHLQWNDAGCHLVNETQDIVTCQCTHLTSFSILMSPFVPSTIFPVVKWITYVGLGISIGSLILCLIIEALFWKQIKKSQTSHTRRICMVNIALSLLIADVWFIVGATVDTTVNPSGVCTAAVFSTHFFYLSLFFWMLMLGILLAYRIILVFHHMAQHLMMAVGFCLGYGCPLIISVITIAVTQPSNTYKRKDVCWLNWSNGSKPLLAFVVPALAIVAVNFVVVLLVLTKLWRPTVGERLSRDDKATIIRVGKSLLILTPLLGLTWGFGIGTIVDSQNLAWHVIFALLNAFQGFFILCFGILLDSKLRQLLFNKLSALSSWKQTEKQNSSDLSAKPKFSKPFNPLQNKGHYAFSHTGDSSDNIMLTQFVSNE
Experiment: cross-linking + affinity purification with mass spectrometry

fold less than with WT GPR110 (label-free MS quantitation): 5 fold
B1: occludin (tight junction protein) (natural protein, human (endogenous in HEK293), UniProt Q16625 1-522, looked up)
chain: MSSRPLESPPPYRPDEFKPNHYAPSNDIYGGEMHVRPMLSQPAYSFYPEDEILHFYKWTSPPGVIRILSMLIIVMCIAIFACVASTLAWDRGYGTSLLGGSVGYPYGGSGFGSYGSGYGYGYGYGYGYGGYTDPRAAKGFMLAMAAFCFIAALVIFVTSVIRSEMSRTRRYYLSVIIVSAILGIMVFIATIVYIMGVNPTAQSSGSLYGSQIYALCNQFYTPAATGLYVDQYLYHYCVVDPQEAIAIVLGFMIIVAFALIIFFAVKTRRKMDRYDKSNILWDKEHIYDEQPPNVEEWVKNVSAGTQDVPSPPSDYVERVDSPMAYSSNGKVNDKRFYPESSYKSTPVPEVVQELPLTSPVDDFRQPRYSSGGNFETPSKRAPAKGRAGRSKRTEQDHYETDYTTGGESCDELEEDWIREYPPITSDQQRQLYKRNFDTGLQEYKSLQSELDEINKELSRLDKELDDYREESEEYMAAADEYNRLKQVKGSADYKSKKNHCKQLKSKLSHIKKMVGDYDRQKT

Reference: article PMC10139975 (iScience, 2023)
